Experimental data as given in patent US20150166606A1 (RA PHARMACEUTICALS, published 2015).
Where two headings read alike, the source gives them in different places. Bridge positions count the residues as written; N and C are the ends. Square brackets hold non-standard residues; d marks the D form. Ends that are not written are not given here. * marks the point of attachment. mXylyl = xylyl linker from dibromoxylene joining the two cysteines; NMeW = CN[C@@H](Cc1c[nH]c2ccccc12)C(=O)O; NMeY = CN[C@@H](Cc1ccc(O)cc1)C(=O)O; NMeT = CN[C@H](C(=O)O)[C@@H](C)O; Phg = N[C@H](C(=O)O)c1ccccc1; Tle = CC(C)(C)[C@H](N)C(=O)O; NMeS = CN[C@@H](CO)C(=O)O; Heptanoyl = CCCCCCC(=O)*; NMeA = CN[C@@H](C)C(=O)O; Nva = CCC[C@H](N)C(=O)O

T1: Factor VIIa (Enzyme Research Laboratories) (human, UniProt P08709 61-466)
T1 sequence (looked up): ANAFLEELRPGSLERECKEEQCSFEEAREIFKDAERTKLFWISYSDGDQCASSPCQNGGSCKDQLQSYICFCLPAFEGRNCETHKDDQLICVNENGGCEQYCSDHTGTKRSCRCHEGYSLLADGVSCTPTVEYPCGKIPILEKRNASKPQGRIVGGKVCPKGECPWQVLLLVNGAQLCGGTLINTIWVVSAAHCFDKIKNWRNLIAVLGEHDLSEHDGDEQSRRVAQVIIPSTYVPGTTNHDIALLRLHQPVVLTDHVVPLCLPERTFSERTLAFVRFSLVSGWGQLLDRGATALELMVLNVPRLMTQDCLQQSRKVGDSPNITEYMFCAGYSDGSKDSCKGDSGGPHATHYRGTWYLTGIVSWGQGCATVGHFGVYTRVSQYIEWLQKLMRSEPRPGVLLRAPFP

T2: Factor XIIa (Enzyme Research Laboratories) (human, UniProt P00748 20-615, limits assumed)
T2 sequence (looked up): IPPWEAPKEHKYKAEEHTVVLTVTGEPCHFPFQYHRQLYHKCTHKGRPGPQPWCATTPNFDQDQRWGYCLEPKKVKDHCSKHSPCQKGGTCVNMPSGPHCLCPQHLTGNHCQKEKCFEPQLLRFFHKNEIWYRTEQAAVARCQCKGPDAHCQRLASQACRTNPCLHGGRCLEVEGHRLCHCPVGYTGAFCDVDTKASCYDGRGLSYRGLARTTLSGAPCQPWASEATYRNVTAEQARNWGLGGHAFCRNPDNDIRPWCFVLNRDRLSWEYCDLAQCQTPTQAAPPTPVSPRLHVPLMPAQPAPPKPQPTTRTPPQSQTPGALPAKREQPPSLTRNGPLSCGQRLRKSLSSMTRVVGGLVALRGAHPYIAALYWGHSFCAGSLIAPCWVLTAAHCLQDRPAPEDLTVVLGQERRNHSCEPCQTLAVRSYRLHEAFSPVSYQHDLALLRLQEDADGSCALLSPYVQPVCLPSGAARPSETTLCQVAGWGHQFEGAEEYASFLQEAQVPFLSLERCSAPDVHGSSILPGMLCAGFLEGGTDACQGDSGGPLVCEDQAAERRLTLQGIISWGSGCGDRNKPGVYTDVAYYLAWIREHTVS

T3: tissue kallikrein KLK13 (R&D Systems) (human, UniProt Q9UKR3 17-277, limits assumed)
T3 sequence (looked up): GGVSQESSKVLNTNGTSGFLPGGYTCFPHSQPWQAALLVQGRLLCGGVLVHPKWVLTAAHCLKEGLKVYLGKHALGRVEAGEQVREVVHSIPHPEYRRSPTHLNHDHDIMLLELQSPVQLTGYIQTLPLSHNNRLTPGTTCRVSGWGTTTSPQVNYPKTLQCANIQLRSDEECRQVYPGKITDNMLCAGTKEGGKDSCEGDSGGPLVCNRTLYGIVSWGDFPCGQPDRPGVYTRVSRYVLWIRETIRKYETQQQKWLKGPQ

B1: R2047 (peptide)
peptide: Ac-CASICRV-NH2
modifications: linker 1-5 via mXylyl; not fully specified (residue 2); printed as [mXylyl(1,5)]Ac-C-a-SICRV-NH2

Tests used:
Test in all cases: cell-based or functional assay
[1] = molecular target: Factor Xa (Enzyme Research Laboratories) (human, UniProt P00742 41-488, limits assumed)
Sequence of Factor Xa (Enzyme Research Laboratories) (P00742 41-488 limits assumed): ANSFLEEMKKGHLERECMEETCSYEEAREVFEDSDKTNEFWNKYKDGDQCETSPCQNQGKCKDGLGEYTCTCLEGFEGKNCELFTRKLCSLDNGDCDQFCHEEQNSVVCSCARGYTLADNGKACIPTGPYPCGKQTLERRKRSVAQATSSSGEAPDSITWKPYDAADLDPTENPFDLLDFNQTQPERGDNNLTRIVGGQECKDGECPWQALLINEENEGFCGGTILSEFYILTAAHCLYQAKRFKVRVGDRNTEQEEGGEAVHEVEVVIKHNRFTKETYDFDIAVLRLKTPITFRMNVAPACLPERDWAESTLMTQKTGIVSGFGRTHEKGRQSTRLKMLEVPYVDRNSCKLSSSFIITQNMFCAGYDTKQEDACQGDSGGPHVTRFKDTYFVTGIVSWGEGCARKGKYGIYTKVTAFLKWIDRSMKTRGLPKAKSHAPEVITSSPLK

[2] = molecular target: T4, Activated human plasma kallikrein (Enzyme Research Laboratories, HPKa 1303) (human, UniProt P03952 20-638)
T4 sequence (P03952 20-638 limits assumed): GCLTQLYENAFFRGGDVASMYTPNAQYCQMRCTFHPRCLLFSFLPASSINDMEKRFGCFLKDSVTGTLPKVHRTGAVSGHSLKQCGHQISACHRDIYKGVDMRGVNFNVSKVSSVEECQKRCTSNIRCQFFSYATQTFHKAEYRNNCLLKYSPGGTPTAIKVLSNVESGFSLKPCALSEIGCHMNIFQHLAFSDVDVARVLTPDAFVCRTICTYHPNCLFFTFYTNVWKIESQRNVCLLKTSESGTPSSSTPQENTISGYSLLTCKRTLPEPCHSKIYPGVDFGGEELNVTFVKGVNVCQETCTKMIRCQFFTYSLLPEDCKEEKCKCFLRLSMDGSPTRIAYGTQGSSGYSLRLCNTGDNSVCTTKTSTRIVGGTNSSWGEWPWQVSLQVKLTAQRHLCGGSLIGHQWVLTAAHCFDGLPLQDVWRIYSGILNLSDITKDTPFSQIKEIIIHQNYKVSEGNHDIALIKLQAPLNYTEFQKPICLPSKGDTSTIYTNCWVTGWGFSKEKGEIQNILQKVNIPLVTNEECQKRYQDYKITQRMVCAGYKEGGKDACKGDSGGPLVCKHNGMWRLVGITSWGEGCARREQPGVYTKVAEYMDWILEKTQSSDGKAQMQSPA

[3] = molecular target: T1, Factor VIIa (Enzyme Research …)
[4] = molecular target: Factor XIa (Enzyme Research Laboratories) (human, UniProt P03951 19-625)
Sequence of Factor XIa (Enzyme Research Laboratories) (P03951 19-625 limits assumed): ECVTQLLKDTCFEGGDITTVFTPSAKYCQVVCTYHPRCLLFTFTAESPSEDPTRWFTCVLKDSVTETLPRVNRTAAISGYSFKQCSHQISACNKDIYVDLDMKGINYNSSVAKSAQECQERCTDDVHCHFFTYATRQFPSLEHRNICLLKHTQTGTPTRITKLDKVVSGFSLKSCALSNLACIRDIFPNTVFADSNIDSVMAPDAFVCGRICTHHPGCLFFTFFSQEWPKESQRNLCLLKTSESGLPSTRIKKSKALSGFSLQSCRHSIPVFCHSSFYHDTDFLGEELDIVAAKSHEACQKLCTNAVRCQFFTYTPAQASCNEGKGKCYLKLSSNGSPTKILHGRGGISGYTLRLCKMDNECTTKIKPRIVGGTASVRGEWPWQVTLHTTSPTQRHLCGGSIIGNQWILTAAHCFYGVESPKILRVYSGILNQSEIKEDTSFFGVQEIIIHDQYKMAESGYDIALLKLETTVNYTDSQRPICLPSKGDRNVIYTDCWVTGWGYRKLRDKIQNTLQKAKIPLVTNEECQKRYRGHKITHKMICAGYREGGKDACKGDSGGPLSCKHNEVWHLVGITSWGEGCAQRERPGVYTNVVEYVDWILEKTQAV

[5] = molecular target: mouse plasma kallikrein (R&D Systems) (mouse, UniProt P26262 20-638)
Sequence of mouse plasma kallikrein (R&D Systems) (P26262 20-638 limits assumed): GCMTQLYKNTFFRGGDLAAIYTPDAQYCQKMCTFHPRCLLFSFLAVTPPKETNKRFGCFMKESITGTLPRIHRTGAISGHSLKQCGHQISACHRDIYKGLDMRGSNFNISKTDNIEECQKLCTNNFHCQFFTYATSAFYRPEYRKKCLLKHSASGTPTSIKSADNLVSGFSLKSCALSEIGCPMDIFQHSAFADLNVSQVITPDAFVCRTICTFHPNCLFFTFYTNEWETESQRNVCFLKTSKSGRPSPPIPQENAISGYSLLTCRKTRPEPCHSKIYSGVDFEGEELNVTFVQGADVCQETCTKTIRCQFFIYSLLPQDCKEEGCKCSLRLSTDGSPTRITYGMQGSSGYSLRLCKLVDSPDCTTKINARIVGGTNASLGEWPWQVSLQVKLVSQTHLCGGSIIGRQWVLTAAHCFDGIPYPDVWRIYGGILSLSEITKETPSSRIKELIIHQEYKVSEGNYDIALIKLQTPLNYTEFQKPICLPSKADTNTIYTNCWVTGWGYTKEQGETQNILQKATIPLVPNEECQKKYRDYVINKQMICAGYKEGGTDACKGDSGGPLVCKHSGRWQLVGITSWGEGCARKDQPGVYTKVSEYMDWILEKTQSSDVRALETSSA

[6] = molecular target: thrombin (Enzyme Research Laboratories) (human, UniProt P00734 328-622)
[7] = molecular target: T2, Factor XIIa (Enzyme Research …)
[8] = molecular target: T3, tissue kallikrein KLK13 (R&D Systems)
[9] = molecular target: plasmin (Enzyme Research Laboratories) (human, UniProt P00747 97-810, limits assumed)
Sequence of plasmin (Enzyme Research Laboratories) (P00747 97-810 limits assumed): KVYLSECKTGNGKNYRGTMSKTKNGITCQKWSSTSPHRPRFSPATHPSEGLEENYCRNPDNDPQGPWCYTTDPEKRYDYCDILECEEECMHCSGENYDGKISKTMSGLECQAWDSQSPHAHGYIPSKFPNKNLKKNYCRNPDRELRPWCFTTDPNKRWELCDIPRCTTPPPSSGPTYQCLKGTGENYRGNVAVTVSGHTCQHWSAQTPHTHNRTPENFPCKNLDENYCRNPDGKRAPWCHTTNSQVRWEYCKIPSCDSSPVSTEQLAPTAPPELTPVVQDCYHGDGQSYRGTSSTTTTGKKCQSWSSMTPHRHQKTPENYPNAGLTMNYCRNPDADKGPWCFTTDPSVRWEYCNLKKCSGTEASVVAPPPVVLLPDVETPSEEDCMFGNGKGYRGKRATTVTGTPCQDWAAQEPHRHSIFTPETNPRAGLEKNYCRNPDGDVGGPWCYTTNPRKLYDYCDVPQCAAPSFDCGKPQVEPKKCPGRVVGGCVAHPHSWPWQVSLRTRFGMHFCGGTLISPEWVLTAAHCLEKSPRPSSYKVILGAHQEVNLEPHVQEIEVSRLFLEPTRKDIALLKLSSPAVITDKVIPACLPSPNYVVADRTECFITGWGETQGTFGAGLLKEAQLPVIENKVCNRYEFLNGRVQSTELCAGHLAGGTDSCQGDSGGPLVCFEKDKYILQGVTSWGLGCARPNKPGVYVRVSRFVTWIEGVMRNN

[10] = molecular target: T4, Activated human plasma kallikrein …; remark: listed apart in the source
[11] = molecular target: T4, Activated human plasma kallikrein …; remark: listed apart in the source

Row | Factor Xa IC50 [1] [µM] | Human Kallikrein IC50 [2] [µM] | Factor VIIa IC50 [3] [µM] | Factor XIa IC50 [4] [µM] | Mouse Kallikrein IC50 [5] [µM] | Thrombin IC50 [6] [µM] | Factor XIIa IC50 [7] [µM] | KLK13 IC50 [8] [µM] | Plasmin IC50 [9] [µM] | Avg. IC50 [10] [µM] | Avg. IC50 [11] [µM] | Binder
1 | > 100 | 0.0099 | > 100 | > 15 | 0.0388 | > 100 | > 100 | > 100 | > 100 | 0.0099 |  | MCESICR[Tle]-NH2 (linker 2-6 via mXylyl) [R2010]
2 |  |  |  |  |  |  |  |  |  |  | > 1.95 | Ac-CN[dY]WSPWTAC-NH2 (cysteine pairing not given here) [R2232]
3 | > 7 | 0.0242 | > 17.9 | > 5.4 | 0.191 | > 100 | > 100 | > 100 | > 100 | 0.0242 |  | Heptanoyl-CESICRV-NH2 (linker 1-5 via mXylyl) [R2041]
4 |  |  |  |  |  |  |  |  |  |  | > 4.52 | Ac-CNY[NMeW]SPWTAC-NH2 (cysteine pairing not given here) [R2238]
5 |  |  |  |  |  |  |  |  |  |  | 0.0027 | Ac-CNYWSPWT[NMeA]C-NH2 (cysteine pairing not given here) [R2234]
6 | > 7 | 0.0064 | > 100 | > 4.8 | 0.0128 | > 100 | > 100 | > 100 | > 19.5 | 0.0064 |  | Ac-CAS[Phg]CR[Tle]-NH2 (linker 1-5 via mXylyl) [R2036]
7 | > 7 | 0.025 | > 100 | > 11.6 | 0.042 | > 100 | > 100 | > 100 | > 100 | 0.0118 |  | MCESICRV-NH2 (linker 2-6 via mXylyl) [R2006]
8 | > 10 | 0.0523 | > 100 | > 9.1 | 0.0856 | > 100 | > 12.5 | > 16.4 | > 21 | 0.0523 |  | MCE[NMeS]ICRV-NH2 (linker 2-6 via mXylyl) [R2019]
9 |  |  |  |  |  |  |  |  |  |  | > 4.9 | Ac-CNYWSP[NMeW]TAC-NH2 (cysteine pairing not given here) [R2236]
10 |  | 0.0083 |  | > 8.3 | 0.0113 |  |  | > 100 |  | 0.0083 |  | MCES[Phg]CRV-NH2 (linker 2-6 via mXylyl) [R2012]
11 |  |  |  |  |  |  |  |  |  |  | 0.101 | Ac-CNYWSPW[NMeT]AC-NH2 (cysteine pairing not given here) [R2235]
12 |  |  |  |  |  |  |  |  |  |  | > 13.9 | Ac-CNYW[NMeS]PWTAC-NH2 (cysteine pairing not given here) [R2237]
13 |  |  |  |  |  |  |  |  |  |  | > 12.5 | Ac-CN[NMeY]WSPWTAC-NH2 (cysteine pairing not given here) [R2239]
14 |  |  |  |  |  |  |  |  |  |  | 0.305 | Ac-C[dN]YWSPWTAC-NH2 (cysteine pairing not given here) [R2233]
15 | > 100 | 0.0323 | > 100 | > 13.8 | 0.0367 | > 100 | > 100 | > 100 | > 100 | 0.0174 |  | B1
16 | > 100 | 0.025 | > 100 | > 10.4 | 0.0639 | > 100 | > 100 | > 100 | > 100 | 0.025 |  | [Nva]CEP[Phg]CR[Tle]-NH2 (linker 2-6 via mXylyl) [R2030]
17 | > 7 | 0.019 | > 100 | > 12.1 | 0.0473 | > 100 | > 100 | > 100 | > 100 | 0.019 |  | Ac-CESICRV-NH2 (linker 1-5 via mXylyl) [R2023]
